The text below walks through data of US20230416365A1 (Hoffmann-La Roche, published 2023).

The labels stand for the following.
T1: N(A2B2)A-avi-His (biotinylated at the avi tag)
T1 construct: also called biotinylated N(A2B2)A-avi-His
T1 chain: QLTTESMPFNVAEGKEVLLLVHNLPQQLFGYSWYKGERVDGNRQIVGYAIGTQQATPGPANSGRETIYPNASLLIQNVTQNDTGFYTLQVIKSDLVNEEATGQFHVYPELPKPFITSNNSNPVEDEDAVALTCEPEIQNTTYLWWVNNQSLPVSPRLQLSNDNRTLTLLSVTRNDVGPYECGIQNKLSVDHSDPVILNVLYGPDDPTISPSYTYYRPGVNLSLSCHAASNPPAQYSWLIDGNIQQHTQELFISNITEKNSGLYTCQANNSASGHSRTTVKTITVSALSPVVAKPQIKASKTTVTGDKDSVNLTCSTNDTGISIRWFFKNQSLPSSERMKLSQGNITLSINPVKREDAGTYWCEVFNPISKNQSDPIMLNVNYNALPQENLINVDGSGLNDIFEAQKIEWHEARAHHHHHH

T2: Hu N(A2-B2)A-avi-His (human, biotinylated at the avi tag (Example 2.2))
T2 construct: also called hu N(A2-B2)A-avi-His B; CEACAM5-based antigen
T2 chain: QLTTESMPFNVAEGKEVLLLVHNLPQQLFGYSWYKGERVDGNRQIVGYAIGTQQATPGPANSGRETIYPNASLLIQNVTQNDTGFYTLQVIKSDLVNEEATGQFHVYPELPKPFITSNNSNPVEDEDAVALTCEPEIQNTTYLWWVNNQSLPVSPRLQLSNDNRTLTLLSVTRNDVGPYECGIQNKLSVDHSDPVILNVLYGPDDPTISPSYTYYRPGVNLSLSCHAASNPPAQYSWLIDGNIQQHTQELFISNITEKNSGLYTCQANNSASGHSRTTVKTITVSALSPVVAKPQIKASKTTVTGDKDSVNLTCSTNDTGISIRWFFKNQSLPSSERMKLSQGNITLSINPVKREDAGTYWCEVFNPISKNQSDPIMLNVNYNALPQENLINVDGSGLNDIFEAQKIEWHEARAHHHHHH

B1: bispecific CEA (P005.103-combo1)-CD28 (SA Variant 15) 1+1 IgG (bispecific antibody)
heavy 1: EIVLTQSPATLSLSPGERATLSCRASSSVTYIHWYQQKPGQAPRSWIYATSNLASGIPARFSGSGSGTDFTLTISSLEPEDFAVYYCQHWSSISPTFGQGTKLEIKSSASTKGPSVFPLAPSSKSTSGGTAALGCLVKDYFPEPVTVSWNSGALTSGVHTFPAVLQSSGLYSLSSVVTVPSSSLGTQTYICNVNHKPSNTKVDKKVEPKSCDKTHTCPPCPAPEAAGGPSVFLFPPKPKDTLMISRTPEVTCVVVDVSHEDPEVKFNWYVDGVEVHNAKTKPREEQYNSTYRVVSVLTVLHQDWLNGKEYKCKVSNKALGAPIEKTISKAKGQPREPQVCTLPPSRDELTKNQVSLSCAVKGFYPSDIAVEWESNGQPENNYKTTPPVLDSDGSFFLVSKLTVDKSRWQQGNVFSCSVMHEALHNHYTQKSLSLSP
light 1: EVQLLESGGGLVQPGGSLRLSCAASGFTFTDYYMNWVRQAPGKGLEWLGFIGNKANAYTTEYSASVKGRFTISRDKSKNTLYLQMNSLRAEDTATYYCTRDRGIRFSFDYWGQGTTVTVSSASVAAPSVFIFPPSDEQLKSGTASVVCLLNNFYPREAKVQWKVDNALQSGNSQESVTEQDSKDSTYSLSSTLTLSKADYEKHKVYACEVTHQGLSSPVTKSFNRGEC
heavy 2: not shown
light 2: not shown
notes: knob-into-hole, crossmab, PG-LALA
B2: bispecific CEA (P006.038)-CD28 (SA Variant 15) 1+1 IgG (bispecific antibody)
heavy 1: EIVLTQSPATLSLSPGERATLSCRASSSVTYIHWYQQKPGQAPRSWIYATSNLASGIPARFSGSGSGTDFTLTISSLEPEDFAVYYCQHWSSVPPTFGQGTKLEIKSSASTKGPSVFPLAPSSKSTSGGTAALGCLVKDYFPEPVTVSWNSGALTSGVHTFPAVLQSSGLYSLSSVVTVPSSSLGTQTYICNVNHKPSNTKVDKKVEPKSCDKTHTCPPCPAPEAAGGPSVFLFPPKPKDTLMISRTPEVTCVVVDVSHEDPEVKFNWYVDGVEVHNAKTKPREEQYNSTYRVVSVLTVLHQDWLNGKEYKCKVSNKALGAPIEKTISKAKGQPREPQVCTLPPSRDELTKNQVSLSCAVKGFYPSDIAVEWESNGQPENNYKTTPPVLDSDGSFFLVSKLTVDKSRWQQGNVFSCSVMHEALHNHYTQKSLSLSP
light 1: EVQLLESGGGLVQPGGSLRLSCAASGFTFTDYYMNWVRQAPGKGLEWLGFIGNKANAYTTEYSASVKGRFTISRDKSKNTLYLQMNSLRAEDTATYYCTRDRGIRFGFDYWGQGTTVTVSSASVAAPSVFIFPPSDEQLKSGTASVVCLLNNFYPREAKVQWKVDNALQSGNSQESVTEQDSKDSTYSLSSTLTLSKADYEKHKVYACEVTHQGLSSPVTKSFNRGEC
heavy 2: not shown
light 2: not shown
notes: as for B1
B3: bispecific CEA (P006.038-combo1)-CD28 (SA Variant 15) 1+1 IgG (bispecific antibody)
heavy 1: EIVLTQSPATLSLSPGERATLSCRASSSVTYIHWYQQKPGQAPRSWIYATSNLASGIPARFSGSGSGTDFTLTISSLEPEDFAVYYCQHWSSVPPTFGQGTKLEIKSSASTKGPSVFPLAPSSKSTSGGTAALGCLVKDYFPEPVTVSWNSGALTSGVHTFPAVLQSSGLYSLSSVVTVPSSSLGTQTYICNVNHKPSNTKVDKKVEPKSCDKTHTCPPCPAPEAAGGPSVFLFPPKPKDTLMISRTPEVTCVVVDVSHEDPEVKFNWYVDGVEVHNAKTKPREEQYNSTYRVVSVLTVLHQDWLNGKEYKCKVSNKALGAPIEKTISKAKGQPREPQVCTLPPSRDELTKNQVSLSCAVKGFYPSDIAVEWESNGQPENNYKTTPPVLDSDGSFFLVSKLTVDKSRWQQGNVFSCSVMHEALHNHYTQKSLSLSP
light 1: EVQLLESGGGLVQPGGSLRLSCAASGFYFTDYAMNWVRQAPGKGLEWLGVISNKANAYTTEYSASVKGRFTISRDKSKNTLYLQMNSLRAEDTATYYCTRDRGIRFGFDYWGQGTTVTVSSASVAAPSVFIFPPSDEQLKSGTASVVCLLNNFYPREAKVQWKVDNALQSGNSQESVTEQDSKDSTYSLSSTLTLSKADYEKHKVYACEVTHQGLSSPVTKSFNRGEC
heavy 2: not shown
light 2: not shown
notes: as for B1
B4: bispecific CEA (P006.038-combo2)-CD28 (SA Variant 15) 1+1 IgG (bispecific antibody)
heavy 1: EIVLTQSPATLSLSPGERATLSCRASSSVTYIHWYQQKPGQAPRSWIYATSNLASGIPARFSGSGSGTDFTLTISSLEPEDFAVYYCQHWSSVPPTFGQGTKLEIKSSASTKGPSVFPLAPSSKSTSGGTAALGCLVKDYFPEPVTVSWNSGALTSGVHTFPAVLQSSGLYSLSSVVTVPSSSLGTQTYICNVNHKPSNTKVDKKVEPKSCDKTHTCPPCPAPEAAGGPSVFLFPPKPKDTLMISRTPEVTCVVVDVSHEDPEVKFNWYVDGVEVHNAKTKPREEQYNSTYRVVSVLTVLHQDWLNGKEYKCKVSNKALGAPIEKTISKAKGQPREPQVCTLPPSRDELTKNQVSLSCAVKGFYPSDIAVEWESNGQPENNYKTTPPVLDSDGSFFLVSKLTVDKSRWQQGNVFSCSVMHEALHNHYTQKSLSLSP
light 1: EVQLLESGGGLVQPGGSLRLSCAASGFTFSDYEMNWVRQAPGKGLEWLGFISNKANAYTTEYSASVKGRFTISRDKSKNTLYLQMNSLRAEDTATYYCTRDRGIRFGFDYWGQGTTVTVSSASVAAPSVFIFPPSDEQLKSGTASVVCLLNNFYPREAKVQWKVDNALQSGNSQESVTEQDSKDSTYSLSSTLTLSKADYEKHKVYACEVTHQGLSSPVTKSFNRGEC
heavy 2: not shown
light 2: not shown
notes: as for B1
B5: bispecific CEA (P005.103-combo2)-CD28 (SA Variant 15) 1+1 IgG (bispecific antibody)
heavy 1: EIVLTQSPATLSLSPGERATLSCRASSSVTYIHWYQQKPGQAPRSWIYATSNLASGIPARFSGSGSGTDFTLTISSLEPEDFAVYYCQHWSSISPTFGQGTKLEIKSSASTKGPSVFPLAPSSKSTSGGTAALGCLVKDYFPEPVTVSWNSGALTSGVHTFPAVLQSSGLYSLSSVVTVPSSSLGTQTYICNVNHKPSNTKVDKKVEPKSCDKTHTCPPCPAPEAAGGPSVFLFPPKPKDTLMISRTPEVTCVVVDVSHEDPEVKFNWYVDGVEVHNAKTKPREEQYNSTYRVVSVLTVLHQDWLNGKEYKCKVSNKALGAPIEKTISKAKGQPREPQVCTLPPSRDELTKNQVSLSCAVKGFYPSDIAVEWESNGQPENNYKTTPPVLDSDGSFFLVSKLTVDKSRWQQGNVFSCSVMHEALHNHYTQKSLSLSP
light 1: EVQLLESGGGLVQPGGSLRLSCAASGFYFTDYYMNWVRQAPGKGLEWLGVISNKANAYTTEYSASVKGRFTISRDKSKNTLYLQMNSLRAEDTATYYCTRDRGIRFSFDYWGQGTTVTVSSASVAAPSVFIFPPSDEQLKSGTASVVCLLNNFYPREAKVQWKVDNALQSGNSQESVTEQDSKDSTYSLSSTLTLSKADYEKHKVYACEVTHQGLSSPVTKSFNRGEC
heavy 2: not shown
light 2: not shown
notes: as for B1
B6: Fab derived from P1AE2166 (Fab, V domains shown)
VH: EVQLLESGGGLVQPGGSLRLSCAASGFTFTDYYMNWVRQAPGKGLEWLGFIGNKANGYTTEYSASVKGRFTISRDKSKNTLYLQMNSLRAEDTATYYCTRDRGLRFYFDYWGQGTTVTVSS
VL: EIVLTQSPATLSLSPGERATLSCRASSSVTYIHWYQQKPGSSPKSWIYATSNLASGIPARFSGSGSGTDFTLTISSLEPEDFAVYYCQHWSSKPPTFGQGTKLEIK
notes: Fab; also called P1AE4137
B7: Fab derived from P1AE2164 (Fab, V domains shown)
VH: EVQLLESGGGLVQPGGSLRLSCAASGFTFTDYYMNWVRQAPGKGLEWLGFIGNKANGYTTEYSASVKGRFTISRDKSKNTLYLQMNSLRAEDTATYYCTRDRGLRFYFDYWGQGTTVTVSS
VL: QTVLTQSPATLSLSPGERATLSCRASSSVTYIHWYQQKPGSSPKSWIYATSNLASGIPARFSGSGSGTDYTLTISSLEPEDFAVYYCQHWSSKPPTFGQGTKLEIK
notes: Fab; also called P1AE4135
B8: CEA (A5B7) Fab (parental murine antibody) (Fab, V domains shown)
VH: EVKLVESGGGLVQPGGSLRLSCATSGFTFTDYYMNWVRQPPGKALEWLGFIGNKANGYTTEYSASVKGRFTISRDKSQSILYLQMNTLRAEDSATYYCTRDRGLRFYFDYWGQGTTLTVSS
VL: QTVLSQSPAILSASPGEKVTMTCRASSSVTYIHWYQQKPGSSPKSWIYATSNLASGVPARFSGSGSGTSYSLTISRVEAEDAATYYCQHWSSKPPTFGGGTKLEIK
notes: Fab; also called P1AE0289

One test has as its target T1, N(A2B2)A-avi-His. The test can be described thus: SPR, ProteOn, antigen on NLC chip, bispecific IgG as analyte. (SPR reads the build-up and loss of mass on a sensor chip optically.)
Procedure: About 2000, 1000, 500, and 250 RU of biotinylated N(A2B2)A-avi-His were immobilized on 4 channels of a Streptavidin-coated NLC chip in vertical orientation. As a control for non-specific binding, 2000 RU of biotinylated NA(B2)A-avi-His protein was immobilized on channel 5. For the determination of the affinity (KD) of the purified bispecific constructs, injection direction was changed to horizontal orientation. […] Buffer (PBST) was injected along the sixth channel to provide an “in-line” blank for referencing. Regeneration was performed with 10 mM glycine pH 1.5 for 20 s at 50 ul/min (vertical orientation).
Association rate constants (kon) and dissociation rate constants (koff) were calculated using a simple one-to-one Langmuir binding model in ProteOn Manager v3.1 software by simultaneously fitting the association and dissociation sensorgrams. The equilibrium dissociation constant (KD) was calculated as the ratio koff/kon.
Consider B1, for which the Kd came to 0.27 nM, the koff was 3.42e-05 s⁻¹ and the kon is 126000 M⁻¹ s⁻¹.
For B2, the Kd is 0.22 nM, the koff is 5.87e-05 s⁻¹ and the kon came out at 267000 M⁻¹ s⁻¹.
B3: the Kd is 4.48 nM, the koff was 0.000799 s⁻¹ and the kon is 178000 M⁻¹ s⁻¹.
On to B4, for which the Kd amounted to 3.66 nM, the koff is 0.000698 s⁻¹ and the kon amounted to 191000 M⁻¹ s⁻¹.
B5 gave a Kd of 0.09 nM, a koff of 1.05e-05 s⁻¹ and a kon of 123000 M⁻¹ s⁻¹.

In a further test the target is T2, Hu N(A2-B2)A-avi-His. The test can be described thus: SPR, Biacore T200, antigen amine-coupled on CM5, Fab as analyte.
Source text: Data were double-referenced against the unimmobilized flow cell 1 and a zero concentration of the analyte. The sensorgrams of the analytes were fitted to a simple 1:1 Langmuir interaction model.
Molecule B6 gave a Kd of 11.3 nM. That is a double-digit nanomolar value.
The same measure, in the same setting: in the case of B7 it was 1.7 nM.
The molecule B8 yielded a Kd of 0.559 nM. This Kd is about 3-fold lower than that of the molecule before.

The Kd is the constant that tells how readily two partners part at equilibrium. A lower Kd goes with higher affinity. As a reminder, the koff is a measure of how fast the partners let go of each other. Higher therefore signals fast dissociation. Broadly, the kon is the second-order rate constant of association. A low value points to slower complex formation.
